Data reported in patent publication US20020102262A1, “Collagen binding protein compositions and methods of use” (priority 1996, published 2002).

Experiments:
[1] = target: type II Col (collagen type II); experiment: biosensor analysis, equilibrium response; protein passed over covalently immobilized type II Col
[2] = system: S. aureus strain Phillips; experiment: Mouse sepsis model, active immunization, intravenous challenge with S. aureus expressing CBP; type: in vivo, mice; settings: for mice died/total: 100μg/mouse on days -31, -18, -7, 2.8×10^7 cfu/mouse i.v. day 0, end day 14
Excerpt: Gram-positive bacteria related sepsis is on the increase. In fact between one-third and one-half of all cases of sepsis are caused by gram-positive bacteria, particularly S. aureus and S. epidermidis. In the United States, it can be estimated that over 200,000 patients will develop gram-positive related sepsis this year. […] Mice were immunized subcutaneously with either M55 or a control antigen (bovine serum albumin) and then challenged intravenously with S. aureus. Eighty-three percent (35/42) of the mice immunized with M55 survived compared to only 27% of the BSA immunized mice (12/45). This is a compilation of 3 separate studies.
Day -31: 100μg/mouse of a CBP Epitope (i.e. M17, M31, or M55) or BSA emulsified with Freund's Complete adjuvant (Difco Laboratories) as a control.
Day -18: 100μg/mouse of a CBP Epitope (ie. M17, M31, or M55) or BSA dissolved in sterile phosphate buffered saline (PBS)
Day -7: 100μg/mouse of a CBP Epitope (i.e. M17, M31, or M55) or BSA dissolved in PBS
Day 0: inoculate intravenously S. aureus strain Phillips (which expresses CBP) (Dose: 2.8×10^7 cfu/mouse)
Day 14: end of study; all surviving mice were euthanized.

immobilized type II Col = immobilized type II Col (Homo sapiens, UniProt P02458); experiment: BIAcore analysis of CBD(30-529) and mutants on immobilized type II Col; type: binding
Sequence of immobilized type II Col (P02458 182-1241 limits assumed): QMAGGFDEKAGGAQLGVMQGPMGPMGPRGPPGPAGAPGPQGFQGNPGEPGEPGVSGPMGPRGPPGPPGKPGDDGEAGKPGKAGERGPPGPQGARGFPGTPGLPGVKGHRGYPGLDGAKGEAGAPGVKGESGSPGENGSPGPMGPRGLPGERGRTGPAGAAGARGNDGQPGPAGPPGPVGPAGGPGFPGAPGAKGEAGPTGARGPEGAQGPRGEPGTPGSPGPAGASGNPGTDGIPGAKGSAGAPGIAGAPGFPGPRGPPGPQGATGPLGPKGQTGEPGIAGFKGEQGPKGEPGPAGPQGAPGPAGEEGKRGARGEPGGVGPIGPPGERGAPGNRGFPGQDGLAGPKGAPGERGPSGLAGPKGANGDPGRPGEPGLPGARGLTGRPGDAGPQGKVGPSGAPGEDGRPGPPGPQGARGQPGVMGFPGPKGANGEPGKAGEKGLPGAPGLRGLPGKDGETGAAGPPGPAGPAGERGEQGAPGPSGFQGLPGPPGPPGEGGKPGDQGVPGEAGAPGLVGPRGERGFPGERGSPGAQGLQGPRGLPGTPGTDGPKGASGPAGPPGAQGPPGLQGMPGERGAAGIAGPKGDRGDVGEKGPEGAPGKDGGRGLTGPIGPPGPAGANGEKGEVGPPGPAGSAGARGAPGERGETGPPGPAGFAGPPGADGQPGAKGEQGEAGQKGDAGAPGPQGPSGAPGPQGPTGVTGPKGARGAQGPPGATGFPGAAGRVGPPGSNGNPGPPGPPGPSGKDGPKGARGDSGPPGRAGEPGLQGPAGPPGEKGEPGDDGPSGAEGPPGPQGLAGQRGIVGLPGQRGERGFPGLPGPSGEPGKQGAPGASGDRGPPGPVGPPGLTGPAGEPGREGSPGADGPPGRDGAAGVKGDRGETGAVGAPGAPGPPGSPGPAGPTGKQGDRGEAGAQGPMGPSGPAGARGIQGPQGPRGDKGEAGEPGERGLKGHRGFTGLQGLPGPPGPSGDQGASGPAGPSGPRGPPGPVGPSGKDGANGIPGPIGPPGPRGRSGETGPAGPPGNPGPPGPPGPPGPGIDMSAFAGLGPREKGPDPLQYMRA
Excerpt: The importance of amino acid residues Asn^232 and Tyr ^33 in the MSCRAMM for Col binding was examined by creating specific mutants of CBD (30-529) and characterizing the interactions of these mutants with immobilized type II Col using the BlAcore. In the mutations made, the identified amino acid residues were replaced individually, (N^232 →A, Y^233 →A) or as a pair, (N^232 →A:Y^233→A) with alanine, a residue that is not expected to interfere with the existing secondary structure. The corresponding base changes were made using overlap extension PCR™ as described and the sequence changes confirmed experimentally. The recombinant proteins containing the mutations were purified to homogeneity by metal ion chelating chromatography.
True equilibrium was not obtained during the injection time period due to the slow dissociation rate (koff). […] The dissociation phase gives information about the koff, and this rate is independent of the number of binding sites, analyte concentration, and flow rate. […] The association phase contains the information to determine the association rate koff the interaction, but it is also influenced by the dissociation rate, the number of binding sites for each interaction, and the concentration of the analyte. Because of the complexity of this interaction and the absence of measurable equilibrium data, it was not possible to determine the binding constant (KD), apparent binding ratio (BRapp), and kon.

Col type II = Col type II (Homo sapiens, UniProt P02458); experiment: Biosensor analysis of CBD(151-318) and single-site mutants binding to Col type II; settings: for BR: approximate binding ratio; for Col-binding activity / affinity for Col compared with wild type CBD(151-318): in words
Sequence of Col type II (P02458 182-1241 limits assumed): as above
Excerpt: Mutational analysis was used to evaluate the putative binding site defined by the docking search. […] The surface area covered by the docked Col is about 1630 Å^2, which is 22% of the total solvent-accessible surface of CBD(172-318). […] Nine of these residues were mutated as well as two additional residues outside the putative binding region. The single-site lysine and alanine mutations were designed to disrupt the surface of the putative Col binding groove of wild type CBD(15 1-318). […] The MSCRAMM recognizes generic triple-helical structures (Speziale et al., 1986; Sakakibara et al., 1973; Heidemann and Roth, 1982), therefore, changes in the low-affinity dissociation constants were used to evaluate alterations in the binding of the mutant proteins (House-Pompeo et al., 1994).

Sequence of type II Col (collagen type II) (P02459 182-1241): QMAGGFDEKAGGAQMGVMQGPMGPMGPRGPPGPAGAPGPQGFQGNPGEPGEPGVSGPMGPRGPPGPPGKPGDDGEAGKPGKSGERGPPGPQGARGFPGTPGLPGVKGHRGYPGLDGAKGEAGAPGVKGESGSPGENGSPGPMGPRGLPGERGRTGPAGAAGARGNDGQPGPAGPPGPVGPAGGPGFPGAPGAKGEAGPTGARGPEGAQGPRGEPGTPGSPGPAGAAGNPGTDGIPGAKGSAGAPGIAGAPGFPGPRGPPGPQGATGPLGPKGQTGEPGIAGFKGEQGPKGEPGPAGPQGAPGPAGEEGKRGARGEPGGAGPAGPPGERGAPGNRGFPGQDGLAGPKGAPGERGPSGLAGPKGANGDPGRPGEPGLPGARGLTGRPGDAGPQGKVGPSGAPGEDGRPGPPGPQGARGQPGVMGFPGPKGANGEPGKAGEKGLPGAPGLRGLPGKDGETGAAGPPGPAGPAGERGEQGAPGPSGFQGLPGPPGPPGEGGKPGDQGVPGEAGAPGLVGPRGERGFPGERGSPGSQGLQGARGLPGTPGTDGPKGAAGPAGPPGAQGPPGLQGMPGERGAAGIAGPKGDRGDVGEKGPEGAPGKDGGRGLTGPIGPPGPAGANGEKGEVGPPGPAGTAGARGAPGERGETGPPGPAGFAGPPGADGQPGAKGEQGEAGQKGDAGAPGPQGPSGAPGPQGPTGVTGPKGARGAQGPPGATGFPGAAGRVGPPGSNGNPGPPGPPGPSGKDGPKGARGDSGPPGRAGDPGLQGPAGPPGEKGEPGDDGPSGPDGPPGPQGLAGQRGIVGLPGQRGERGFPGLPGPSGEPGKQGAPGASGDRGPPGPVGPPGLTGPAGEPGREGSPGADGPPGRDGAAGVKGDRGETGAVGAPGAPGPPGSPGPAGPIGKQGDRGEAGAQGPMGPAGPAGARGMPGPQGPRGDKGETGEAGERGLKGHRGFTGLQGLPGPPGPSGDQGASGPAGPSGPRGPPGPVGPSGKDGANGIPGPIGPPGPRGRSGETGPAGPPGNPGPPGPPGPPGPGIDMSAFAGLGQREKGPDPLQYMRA

| Molecule | BR (approximate binding ratio) [1] | BR (Col type II) | also measured |
| --- | --- | --- | --- |
| CBD(151-318), recombinant Col-binding domain of the S. aureus CBP (wild type) (from UniProt Q53654 151-318) | 10 | – | – |
| CBD(151-318) 189R→A (from UniProt Q53654 151-318) | > 13 | – | – |
| CBD(151-318) 233Y→A (from UniProt Q53654 151-318) | 11 | – | – |
| CBD(151-318) 225N→K (from UniProt Q53654 151-318) | 10 | – | – |
| CBD(151-318) 223N→K (from UniProt Q53654 151-318) | 10 | – | – |
| full-length sequence: previously-identified full-length S. aureus CBP [reference compound] | – | – | protection against sepsis ([2]; in words): does not confer protection against sepsis |
| CBD(151-318) 232N→A (from UniProt Q53654 151-318) | 12 | – | – |
| CBD(151-318) 191F→A (from UniProt Q53654 151-318) | 10 | – | – |
| CBD(151-318) 212Q→A (from UniProt Q53654 151-318) | 10 | – | – |
| CBD(151-318) 278N→K (from UniProt Q53654 151-318) | 9 | – | – |
| CBD(151-318) 193N→K (from UniProt Q53654 151-318) | 12 | – | – |
| CBD(151-318) 221T→K (from UniProt Q53654 151-318) | 9 | – | – |
| M31: recombinant S. aureus Col-binding MSCRAMM derivative, amino acids 61-343 of full length CBP (SEQ ID NO:4) | – | – | mice died/total [2]: 12/14 |
| CBD(151-318) 175Y→K (from UniProt Q53654 151-318) | > 20 | – | – |
| M17: recombinant S. aureus Col-binding MSCRAMM derivative, amino acids 151-297 of full length CBP (SEQ ID NO:2) | – | – | mice died/total [2]: 10/15 |
| Y^233→A (protein) ARDISSTNVTDLTVSPSKIEDGGKTTVKMTFDDKNGKIQNGDMIKVAWPTSGTVKIEGYSKTVPLTVKGEQVGQAVITPDGATITFNDKVEKLSDVSGFAEFEVQGRNLTQTNTSDDKVATITSGNKSTNVTVHKSEAGTSSVFYYKTGDMLPEDTTHVRWFLNINNEKSYVSKDITIKDQIQGGQQLDLSTLNINVTGTHSNAYSGQSAITDFEKAFPGSKITVDNTKNTIDVTIPQGYGSYNSFSINYKTKITNEQQKEFVNNSQAWYQEHGKEEVNGKSFNHTVHNINANAGIEGTVKGELKVLKQDKDTKAPIANVKFKLSKKDGSVVKDNQKEIEIITDANGIANIKALPSGDYILKEIEAPRPYTFDKDKEYPFTMKDTDNQGYFTTIENAKAIEKTKDVSAQKVWEGTQKVKPTIYFKLYKQDDNQNTTPVDKAEIKKLEDGTTKVTWSNLPENDKNGKAIKYLVKEVNAQGEDTTPEGYTKKENGLVVTNTE | – | – | affinity and apparent binding ratio compared to wild type (immobilized type II Col): even more significant decreasesin affinity and apparent binding ratio |
| 212Q→A (protein) ITSGNKSTNVTVHKSEAGTSSVFYYKTGDMLPEDTTHVRWFLNINNEKSYVSKDITIKDQIAGGQQLDLSTLNINVTGTHSNYYSGQSAITDFEKAFPGSKITVDNTKNTIDVTIPQGYGSYNSFSINYKTKITNEQQKEFVNNSQAWYQEHGKEEVNGKSFNHTVHN | – | 10 | Col-binding activity / affinity for Col compared with wild type CBD(151-318) (Col type II): did not differ significantly from that of wild type CBD(151-318) |
| 233Y→A (protein) ITSGNKSTNVTVHKSEAGTSSVFYYKTGDMLPEDTTHVRWFLNINNEKSYVSKDITIKDQIQGGQQLDLSTLNINVTGTHSNAYSGQSAITDFEKAFPGSKITVDNTKNTIDVTIPQGYGSYNSFSINYKTKITNEQQKEFVNNSQAWYQEHGKEEVNGKSFNHTVHN | – | 11 | – |
| 193N→K (protein) ITSGNKSTNVTVHKSEAGTSSVFYYKTGDMLPEDTTHVRWFLKINNEKSYVSKDITIKDQIQGGQQLDLSTLNINVTGTHSNYYSGQSAITDFEKAFPGSKITVDNTKNTIDVTIPQGYGSYNSFSINYKTKITNEQQKEFVNNSQAWYQEHGKEEVNGKSFNHTVHN | – | 12 | – |
| 223N→K (protein) ITSGNKSTNVTVHKSEAGTSSVFYYKTGDMLPEDTTHVRWFLNINNEKSYVSKDITIKDQIQGGQQLDLSTLKINVTGTHSNYYSGQSAITDFEKAFPGSKITVDNTKNTIDVTIPQGYGSYNSFSINYKTKITNEQQKEFVNNSQAWYQEHGKEEVNGKSFNHTVHN | – | 10 | – |
| 221T→K (protein) ITSGNKSTNVTVHKSEAGTSSVFYYKTGDMLPEDTTHVRWFLNINNEKSYVSKDITIKDQIQGGQQLDLSKLNINVTGTHSNYYSGQSAITDFEKAFPGSKITVDNTKNTIDVTIPQGYGSYNSFSINYKTKITNEQQKEFVNNSQAWYQEHGKEEVNGKSFNHTVHN | – | 9 | Col-binding activity / affinity for Col compared with wild type CBD(151-318) (Col type II): did not differ significantly from that of wild type CBD(151-318) |
| 191F→A (protein) ITSGNKSTNVTVHKSEAGTSSVFYYKTGDMLPEDTTHVRWALNINNEKSYVSKDITIKDQIQGGQQLDLSTLNINVTGTHSNYYSGQSAITDFEKAFPGSKITVDNTKNTIDVTIPQGYGSYNSFSINYKTKITNEQQKEFVNNSQAWYQEHGKEEVNGKSFNHTVHN | – | 10 | – |
| 232N→A (protein) ITSGNKSTNVTVHKSEAGTSSVFYYKTGDMLPEDTTHVRWFLNINNEKSYVSKDITIKDQIQGGQQLDLSTLNINVTGTHSAYYSGQSAITDFEKAFPGSKITVDNTKNTIDVTIPQGYGSYNSFSINYKTKITNEQQKEFVNNSQAWYQEHGKEEVNGKSFNHTVHN | – | 12 | Col-binding activity / affinity for Col compared with wild type CBD(151-318) (Col type II): did not differ significantly from that of wild type CBD(151-318) |
| 225N→K (protein) ITSGNKSTNVTVHKSEAGTSSVFYYKTGDMLPEDTTHVRWFLNINNEKSYVSKDITIKDQIQGGQQLDLSTLNIKVTGTHSNYYSGQSAITDFEKAFPGSKITVDNTKNTIDVTIPQGYGSYNSFSINYKTKITNEQQKEFVNNSQAWYQEHGKEEVNGKSFNHTVHN | – | 10 | Col-binding activity / affinity for Col compared with wild type CBD(151-318) (Col type II): did not differ significantly from that of wild type CBD(151-318) |
| 175Y→K (protein) ITSGNKSTNVTVHKSEAGTSSVFYKKTGDMLPEDTTHVRWFLNINNEKSYVSKDITIKDQIQGGQQLDLSTLNINVTGTHSNYYSGQSAITDFEKAFPGSKITVDNTKNTIDVTIPQGYGSYNSFSINYKTKITNEQQKEFVNNSQAWYQEHGKEEVNGKSFNHTVHN | – | >20 | – |
| 189R→A (protein) ITSGNKSTNVTVHKSEAGTSSVFYYKTGDMLPEDTTHVAWFLNINNEKSYVSKDITIKDQIQGGQQLDLSTLNINVTGTHSNYYSGQSAITDFEKAFPGSKITVDNTKNTIDVTIPQGYGSYNSFSINYKTKITNEQQKEFVNNSQAWYQEHGKEEVNGKSFNHTVHN | – | >13 | – |
| 278N→K (protein) ITSGNKSTNVTVHKSEAGTSSVFYYKTGDMLPEDTTHVRWFLNINNEKSYVSKDITIKDQIQGGQQLDLSTLNINVTGTHSNYYSGQSAITDFEKAFPGSKITVDNTKNTIDVTIPQGYGSYNSFSIKYKTKITNEQQKEFVNNSQAWYQEHGKEEVNGKSFNHTVHN | – | 9 | – |
